± gives the uncertainty stated by the source.
B1: Chromodomain-helicase-DNA-binding protein 3, residues 374 to 426; numbered along this chain, Q12873 (parent)
chain: YETDHQDYCEVCQQGGEIILCDTCPRAYHLVCLDPELDRAPEGKWSCPHCEKE

Variants of: B1
Assay: abundance fitness (aPCA) (normalised: wild type 0, dead -1); higher = more abundant; growth selection in yeast, the domain comes from the species named
Details: Homo sapiens
In the case of V31I, the abundance fitness is reported as -0.245 ± 0.12.
For V31T, the abundance fitness was -0.3 ± 0.11.
In the case of V31C, the abundance fitness is reported as -0.254 ± 0.15.
In the case of V31L, the abundance fitness is reported as -0.17 ± 0.094.
Work on V31K yielded an abundance fitness of -0.132 ± 0.15.
Variant V31Y has an abundance fitness of -0.297 ± 0.17.
With V31S the abundance fitness was -0.061 ± 0.096.
For V31W, the abundance fitness was -0.26 ± 0.14.
In the case of V31A, the abundance fitness is reported as 0.158 ± 0.12.
V31F gave an abundance fitness of -0.09 ± 0.12.
With V31M the abundance fitness was -0.03 ± 0.12.
Work on V31H yielded an abundance fitness of 0.038 ± 0.13.
Work on V31G yielded an abundance fitness of -0.094 ± 0.13.
V31E showed an abundance fitness of -0.229 ± 0.14.
Variant V31D has an abundance fitness of -0.18 ± 0.15.
V31Q gave an abundance fitness of -0.012 ± 0.13.
V31N gave an abundance fitness of -0.314 ± 0.12.
With G16M the abundance fitness was -0.237 ± 0.15.
G16V showed an abundance fitness of -0.113 ± 0.11.
G16F showed an abundance fitness of -0.156 ± 0.28.
Work on G16N yielded an abundance fitness of 0.157 ± 0.16.
In the case of G16I, the abundance fitness is reported as 0.079 ± 0.17.
G16K showed an abundance fitness of 0.346 ± 0.13.
Variant G16C has an abundance fitness of -0.256 ± 0.14.
With G16H the abundance fitness was -0.057 ± 0.17.
G16P gave an abundance fitness of -0.423 ± 0.13.
For G16W, the abundance fitness was 0.025 ± 0.12.
For G16D, the abundance fitness was -0.053 ± 0.18.
In the case of G16Y, the abundance fitness is reported as 0.033 ± 0.15.
Variant G16Q has an abundance fitness of -0.251 ± 0.19.
In the case of G16L, the abundance fitness is reported as -0.097 ± 0.11.
G16T gave an abundance fitness of 0.234 ± 0.13.
In the case of G16R, the abundance fitness is reported as 0.197 ± 0.083.
With G16E the abundance fitness was 0.07 ± 0.15.
In the case of G16S, the abundance fitness is reported as 0.118 ± 0.1.
Work on C24Y yielded an abundance fitness of -1.34 ± 0.24.
In the case of C24R, the abundance fitness is reported as -0.951 ± 0.14.
For C24Q, the abundance fitness was -0.898 ± 0.24.
C24P showed an abundance fitness of -1.11 ± 0.21.
C24D showed an abundance fitness of -0.754 ± 0.22.
In the case of C24G, the abundance fitness is reported as -0.962 ± 0.14.
With C24T the abundance fitness was -0.687 ± 0.17.
With C24S the abundance fitness was -0.617 ± 0.15.
In the case of C24K, the abundance fitness is reported as -0.919 ± 0.21.
C24M showed an abundance fitness of -0.914 ± 0.24.
Variant C24F has an abundance fitness of -1.05 ± 0.23.
For C24W, the abundance fitness was -1.12 ± 0.19.
For C24A, the abundance fitness was -0.799 ± 0.23.
C24E gave an abundance fitness of -1.16 ± 0.26.
Variant C24V has an abundance fitness of -1.08 ± 0.15.
Work on C24H yielded an abundance fitness of -0.907 ± 0.25.
C24I showed an abundance fitness of -0.9 ± 0.35.
For H29L, the abundance fitness was -0.763 ± 0.12.
H29E showed an abundance fitness of -0.872 ± 0.14.
H29G gave an abundance fitness of -0.844 ± 0.11.
H29K gave an abundance fitness of -0.912 ± 0.17.
H29W gave an abundance fitness of -0.656 ± 0.14.
With H29A the abundance fitness was -0.745 ± 0.11.
With H29N the abundance fitness was -0.383 ± 0.17.
In the case of H29V, the abundance fitness is reported as -0.745 ± 0.11.
For H29Y, the abundance fitness was -1.1 ± 0.19.
Variant H29F has an abundance fitness of -1.07 ± 0.19.
Work on H29I yielded an abundance fitness of -1.09 ± 0.22.
H29S showed an abundance fitness of -0.852 ± 0.13.
With H29T the abundance fitness was -0.846 ± 0.15.
For H29C, the abundance fitness was 0.029 ± 0.13.
Variant H29R has an abundance fitness of -0.786 ± 0.097.
With H29P the abundance fitness was -0.801 ± 0.17.
H29D gave an abundance fitness of -0.615 ± 0.15.
E17T gave an abundance fitness of 0.053 ± 0.12.
With E17G the abundance fitness was -0.234 ± 0.094.
For E17R, the abundance fitness was -0.148 ± 0.085.
For E17F, the abundance fitness was -0.162 ± 0.14.
E17S showed an abundance fitness of -0.087 ± 0.094.
E17A gave an abundance fitness of -0.081 ± 0.1.
In the case of E17M, the abundance fitness is reported as 0.152 ± 0.13.
For E17V, the abundance fitness was -0.489 ± 0.11.
Work on E17L yielded an abundance fitness of -0.258 ± 0.11.
For E17I, the abundance fitness was -0.353 ± 0.2.
E17D gave an abundance fitness of -0.047 ± 0.13.
E17P gave an abundance fitness of -0.558 ± 0.14.
Variant E17Q has an abundance fitness of -0.147 ± 0.14.
Variant E17N has an abundance fitness of 0.07 ± 0.17.
For E17C, the abundance fitness was -0.037 ± 0.11.
With E17H the abundance fitness was -0.882 ± 0.33.
With E17Y the abundance fitness was -0.031 ± 0.17.
Variant C12W has an abundance fitness of -0.836 ± 0.11.
Work on C12H yielded an abundance fitness of -0.999 ± 0.17.
In the case of C12N, the abundance fitness is reported as -0.67 ± 0.17.
For C12G, the abundance fitness was -0.845 ± 0.11.
C12P showed an abundance fitness of -0.76 ± 0.13.
C12F gave an abundance fitness of -0.903 ± 0.23.
C12T gave an abundance fitness of -0.813 ± 0.12.
In the case of C12K, the abundance fitness is reported as -0.757 ± 0.15.
With C12V the abundance fitness was -0.78 ± 0.14.
For C12Y, the abundance fitness was -0.871 ± 0.13.
For C12R, the abundance fitness was -0.954 ± 0.094.
For C12E, the abundance fitness was -0.83 ± 0.16.
Work on C12S yielded an abundance fitness of -0.956 ± 0.11.
Work on C12L yielded an abundance fitness of -0.866 ± 0.099.
Variant C12I has an abundance fitness of -0.947 ± 0.2.
T23G gave an abundance fitness of -0.248 ± 0.2.
Work on T23S yielded an abundance fitness of 0.032 ± 0.1.
Variant T23K has an abundance fitness of -0.696 ± 0.19.
With T23M the abundance fitness was 0.024 ± 0.2.
Work on T23W yielded an abundance fitness of -0.631 ± 0.19.
With T23P the abundance fitness was -0.596 ± 0.14.
T23Y gave an abundance fitness of 0.05 ± 0.12.
Work on T23A yielded an abundance fitness of -0.337 ± 0.14.
With T23L the abundance fitness was -0.22 ± 0.099.
For T23D, the abundance fitness was -0.308 ± 0.2.
T23N showed an abundance fitness of 0.122 ± 0.15.
Work on T23H yielded an abundance fitness of -0.146 ± 0.13.
In the case of T23V, the abundance fitness is reported as -0.162 ± 0.17.
With T23Q the abundance fitness was -0.455 ± 0.27.
Work on T23I yielded an abundance fitness of -0.189 ± 0.12.
In the case of T23R, the abundance fitness is reported as -0.179 ± 0.11.
T23E showed an abundance fitness of -0.077 ± 0.16.
In the case of T23F, the abundance fitness is reported as -0.035 ± 0.11.
G15L gave an abundance fitness of -0.366 ± 0.21.
With G15N the abundance fitness was -0.065 ± 0.27.
With G15W the abundance fitness was -0.121 ± 0.2.
Variant G15Y has an abundance fitness of -0.03 ± 0.26.
Variant G15V has an abundance fitness of -0.609 ± 0.21.
G15P gave an abundance fitness of -0.488 ± 0.31.
G15Q gave an abundance fitness of -0.434 ± 0.27.
Work on G15A yielded an abundance fitness of 0.329 ± 0.18.
Work on G15C yielded an abundance fitness of -0.823 ± 0.34.
Variant G15E has an abundance fitness of -0.202 ± 0.19.
In the case of G15K, the abundance fitness is reported as 0.112 ± 0.27.
For G15T, the abundance fitness was 0.088 ± 0.18.
In the case of G15M, the abundance fitness is reported as 0.084 ± 0.21.
G15D showed an abundance fitness of -0.21 ± 0.27.
In the case of Q13H, the abundance fitness is reported as 0.059 ± 0.11.
Q13E gave an abundance fitness of -0.09 ± 0.12.
Q13P gave an abundance fitness of -0.783 ± 0.13.
In the case of Q13F, the abundance fitness is reported as 0.012 ± 0.12.
For Q13K, the abundance fitness was -0.051 ± 0.1.
Q13S gave an abundance fitness of -0.019 ± 0.084.
Variant Q13D has an abundance fitness of -0.346 ± 0.12.
Q13C gave an abundance fitness of -0.048 ± 0.12.
Work on Q13Y yielded an abundance fitness of -0.015 ± 0.11.
With Q13R the abundance fitness was 0.01 ± 0.081.
For Q13W, the abundance fitness was -0.363 ± 0.12.
With Q13N the abundance fitness was -0.084 ± 0.13.
Q13V gave an abundance fitness of -0.057 ± 0.084.
Work on Q13G yielded an abundance fitness of -0.194 ± 0.1.
Work on Q13M yielded an abundance fitness of 0.084 ± 0.09.
Q13A gave an abundance fitness of -0.237 ± 0.1.
For L20K, the abundance fitness was 0.081 ± 0.11.
With L20F the abundance fitness was 0.037 ± 0.15.
In the case of L20P, the abundance fitness is reported as 0.402 ± 0.11.
L20T showed an abundance fitness of 0.262 ± 0.098.
L20N gave an abundance fitness of 0.101 ± 0.15.
Work on L20M yielded an abundance fitness of 0.047 ± 0.12.
With L20D the abundance fitness was 0.015 ± 0.16.
Work on L20I yielded an abundance fitness of 0.076 ± 0.17.
L20Y gave an abundance fitness of 0.102 ± 0.16.
L20E showed an abundance fitness of -0.003 ± 0.14.
L20C gave an abundance fitness of 0.01 ± 0.15.
Variant L20V has an abundance fitness of -0.078 ± 0.099.
With L20S the abundance fitness was 0.171 ± 0.095.
L20G showed an abundance fitness of 0.208 ± 0.099.
Variant L20W has an abundance fitness of -0.205 ± 0.16.
L20R showed an abundance fitness of 0.149 ± 0.094.
For L20Q, the abundance fitness was -0.143 ± 0.13.
Variant L30G has an abundance fitness of -0.014 ± 0.13.

From the Human Domainome abundance scans (Beltran et al. 2025)
